Measurements reported in the Human Domainome abundance scans (Beltran et al. 2025).
± gives the uncertainty stated by the source.

B1: 3'-5' exoribonuclease 1, residues 65 to 114; numbered along this chain, Q8IV48 (parent)
chain: VYKEIAITNGCINRMSKEELRAKLSEFKLETRGVKDVLKKRLKNYYKKQK

Variants of: B1
Assay: abundance fitness (aPCA) (normalised: wild type 0, dead -1); higher = more abundant; growth selection in yeast, the domain comes from the species named
Settings: Homo sapiens

Abundance fitness: each site, then its substitutions
C11: Q 0.046 ± 0.054; Y -0.052 ± 0.037; V 0.01 ± 0.034; G -0.058 ± 0.035; D 0.067 ± 0.048; S 0.012 ± 0.037; H -0.048 ± 0.053; L -0.053 ± 0.037; P -0.278 ± 0.047; I 0.007 ± 0.05; T 0.005 ± 0.044; M 0.057 ± 0.046; E 0.071 ± 0.046; R -0.074 ± 0.037; N -0.04 ± 0.05; W -0.147 ± 0.053; K -0.039 ± 0.049; A 0.046 ± 0.038; F -0.104 ± 0.044
K17: A -0.209 ± 0.076; H -0.591 ± 0.083; R -0.203 ± 0.07; E -0.518 ± 0.13; S -0.34 ± 0.051; N -0.378 ± 0.063; C -0.113 ± 0.086; T -0.366 ± 0.056; Q -0.664 ± 0.13; Y -0.651 ± 0.087; F -0.646 ± 0.058; V -0.152 ± 0.061; I -0.329 ± 0.057; W -0.871 ± 0.17; D -0.759 ± 0.12; L -0.592 ± 0.058; G -0.603 ± 0.094
N13: Q -0.629 ± 0.051; P -0.949 ± 0.065; W -0.938 ± 0.049; I -0.65 ± 0.078; L -0.914 ± 0.043; A -0.487 ± 0.037; R -0.415 ± 0.035; Y -0.437 ± 0.06; V -0.764 ± 0.041; K -0.376 ± 0.048; T -0.684 ± 0.051; E -0.446 ± 0.05; M -0.801 ± 0.057; S -0.272 ± 0.038; F -0.961 ± 0.077; D -0.259 ± 0.055
I12: A -0.873 ± 0.052; E -0.818 ± 0.073; V -0.152 ± 0.039; P -0.716 ± 0.048; K -0.741 ± 0.068; F -0.693 ± 0.048; Q -0.899 ± 0.066; R -0.738 ± 0.042; Y -0.699 ± 0.06; D -0.961 ± 0.088; W -0.435 ± 0.043; S -0.769 ± 0.04; T -0.457 ± 0.046; L -0.389 ± 0.034; C -0.721 ± 0.056; G -0.877 ± 0.047
A22: T -0.055 ± 0.052; R -0.031 ± 0.038; H -0.049 ± 0.063; Q -0.044 ± 0.06; V -0.048 ± 0.038; P -0.948 ± 0.079; S -0.04 ± 0.039; M -0.047 ± 0.051; F -0.12 ± 0.049; I -0.057 ± 0.069; K 0.057 ± 0.06; L -0.052 ± 0.038; C -0.032 ± 0.044; W -0.209 ± 0.046; N -0.027 ± 0.061; G -0.118 ± 0.034; D -0.122 ± 0.051
G10: H -0.18 ± 0.053; S -0.146 ± 0.033; W -0.401 ± 0.041; K -0.112 ± 0.044; Q -0.125 ± 0.045; P -0.248 ± 0.04; R -0.248 ± 0.035; L -0.37 ± 0.034; A -0.118 ± 0.035; Y -0.238 ± 0.048; I -0.34 ± 0.07; C -0.23 ± 0.04; T -0.121 ± 0.043; E -0.155 ± 0.046; F -0.323 ± 0.043; N -0.147 ± 0.076
I5: T 0.066 ± 0.043; D 0.026 ± 0.049; R -0.101 ± 0.039; E -0.044 ± 0.092; N -0.004 ± 0.045; H -0.006 ± 0.042; S -0.004 ± 0.036; Q 0.041 ± 0.057; W -0.225 ± 0.056; A 0.007 ± 0.041; V -0.037 ± 0.04; G 0.025 ± 0.046; M 0.052 ± 0.056; K -0.042 ± 0.056; F -0.065 ± 0.048; L -0.051 ± 0.038; P -0.003 ± 0.043; Y -0.029 ± 0.044
I7: Y -0.14 ± 0.048; G -0.13 ± 0.034; L 0.019 ± 0.035; E -0.175 ± 0.051; C -0.164 ± 0.039; A -0.097 ± 0.04; R -0.178 ± 0.033; S -0.142 ± 0.037; V -0.091 ± 0.037; T -0.1 ± 0.056; K -0.131 ± 0.049; N -0.17 ± 0.058; W -0.287 ± 0.037; F -0.198 ± 0.047; D -0.171 ± 0.051; P -0.067 ± 0.041; M -0.016 ± 0.042; Q -0.141 ± 0.05; H -0.166 ± 0.057
E19: W -0.77 ± 0.061; D -0.107 ± 0.058; P -1.01 ± 0.081; V -0.379 ± 0.038; R -0.438 ± 0.042; K -0.324 ± 0.052; G -0.375 ± 0.04; N -0.299 ± 0.061; Y -0.652 ± 0.056; I -0.699 ± 0.078; S -0.26 ± 0.04; Q 0.007 ± 0.044; A -0.147 ± 0.047; L -0.517 ± 0.041; F -0.784 ± 0.075; C -0.382 ± 0.053
T8: K -0.07 ± 0.048; M -0.161 ± 0.053; Y -0.49 ± 0.057; E -0.24 ± 0.049; H -0.268 ± 0.049; S -0.019 ± 0.039; L -0.388 ± 0.037; R -0.174 ± 0.036; D -0.274 ± 0.052; P -0.069 ± 0.042; C -0.29 ± 0.054; Q -0.199 ± 0.048; F -0.472 ± 0.049; G -0.215 ± 0.037; W -0.513 ± 0.049
S16: N -0.041 ± 0.078; F -0.701 ± 0.043; D -0.336 ± 0.093; K -0.026 ± 0.12; P -0.264 ± 0.064; T -0.01 ± 0.059; I -0.828 ± 0.078; Q -0.54 ± 0.11; A -0.445 ± 0.082; R -0.097 ± 0.061; E -0.746 ± 0.28; Y -0.461 ± 0.054; W -1.19 ± 0.29; V -0.753 ± 0.081; L -0.838 ± 0.069; G -0.425 ± 0.078; M -1.08 ± 0.26
R21: F -0.688 ± 0.062; Y -0.773 ± 0.075; Q -0.221 ± 0.052; I -0.226 ± 0.073; E -0.841 ± 0.058; H -0.644 ± 0.075; S -0.518 ± 0.043; T -0.473 ± 0.051; N -0.787 ± 0.069; L -0.528 ± 0.039; P -0.697 ± 0.071; W -0.833 ± 0.051; D -0.844 ± 0.073; C -0.474 ± 0.049; M -0.449 ± 0.053; V -0.203 ± 0.038; G -0.804 ± 0.039
A6: D -0.183 ± 0.43; L -0.082 ± 0.07; Q -0.179 ± 0.11; C -0.172 ± 0.13; G -0.084 ± 0.21; M -0.096 ± 0.11; S -0.075 ± 0.063; N -0.003 ± 0.063; H 0.022 ± 0.09; I 0.019 ± 0.082; Y -0.008 ± 0.09; E -0.092 ± 0.14; P 0.007 ± 0.063; F -0.078 ± 0.077; V 0.011 ± 0.12; W -0.261 ± 0.16
E18: D -0.034 ± 0.047; C 0.072 ± 0.047; S 0.038 ± 0.039; A 0.079 ± 0.039; W -0.131 ± 0.049; M 0.012 ± 0.055; L -0.025 ± 0.039; Q 0.075 ± 0.064; R 0.04 ± 0.037; G -0.023 ± 0.035; K 0.058 ± 0.059; N 0.047 ± 0.06; P -0.008 ± 0.045; Y -0.179 ± 0.054; I -0.003 ± 0.062; H -0.043 ± 0.062; V 0.058 ± 0.037; F -0.007 ± 0.063
L20: R -0.997 ± 0.052; S -0.479 ± 0.044; D -1 ± 0.089; F -0.512 ± 0.059; E -0.78 ± 0.056; K -0.956 ± 0.085; A -0.912 ± 0.05; G -0.942 ± 0.043; C -0.879 ± 0.064; P -0.961 ± 0.068; T -0.913 ± 0.06; W -0.835 ± 0.044; Q -0.892 ± 0.081; M -0.282 ± 0.047; V -0.568 ± 0.038
R14: T -0.226 ± 0.045; H -0.166 ± 0.057; Y -0.826 ± 0.059; E -0.359 ± 0.048; N -0.151 ± 0.055; A -0.115 ± 0.035; Q -0.072 ± 0.048; M -0.298 ± 0.05; W -0.941 ± 0.053; C -0.315 ± 0.041; V -0.65 ± 0.036; P -0.908 ± 0.051; D -0.308 ± 0.052; G -0.15 ± 0.035; L -0.43 ± 0.037; S -0.129 ± 0.036; I -0.724 ± 0.07; F -0.881 ± 0.065
K23: V -0.182 ± 0.036; E -0.56 ± 0.048; T -0.172 ± 0.047; S -0.318 ± 0.039; R -0.101 ± 0.036; L -0.176 ± 0.035; G -0.861 ± 0.043; W -0.234 ± 0.044; H -0.154 ± 0.062; C -0.158 ± 0.057; Q -0.11 ± 0.049; P -0.941 ± 0.061
L24: A -0.704 ± 0.06; C -0.052 ± 0.049; I -0.88 ± 0.13; H -0.772 ± 0.083; G -0.97 ± 0.048; M -0.507 ± 0.052; N -1.03 ± 0.13; P -0.984 ± 0.072; K -0.973 ± 0.086; D -1.05 ± 0.13; E -0.986 ± 0.081
E4: Q -0.085 ± 0.061; W -0.229 ± 0.047; M -0.144 ± 0.05; P -0.107 ± 0.051; R -0.353 ± 0.036; Y -0.164 ± 0.053; N -0.057 ± 0.056; S -0.077 ± 0.039; T -0.06 ± 0.047
M15: E -1.05 ± 0.18; K -0.326 ± 0.082; L -0.317 ± 0.046; T -0.414 ± 0.057; R -0.718 ± 0.081; D -0.981 ± 0.098; A -0.678 ± 0.071; I -0.635 ± 0.048; N -0.789 ± 0.071; F -0.544 ± 0.052; H -0.873 ± 0.062; P -1 ± 0.092; C -0.826 ± 0.088; G -0.975 ± 0.12; Y -0.645 ± 0.05; W -0.83 ± 0.12; Q -0.885 ± 0.12
N9: M 0.036 ± 0.053; F -0.091 ± 0.054; D -0.244 ± 0.06; P 0.015 ± 0.045; S -0.067 ± 0.037; K 0.066 ± 0.055; A -0.033 ± 0.043; H -0.066 ± 0.052; Q -0.174 ± 0.061; C -0.047 ± 0.041; L -0.127 ± 0.038; V -0.092 ± 0.043; W -0.331 ± 0.044; T -0.12 ± 0.042; E -0.241 ± 0.062
